Assay results published in the RNAGym collection of RNA variant scans (doi:10.1073/pnas.2313332121).
This sample holds only a part of the variants without activity.

B1: TPR 5TU (parent)
chain: GGAUCUUCUCGAUCUAACAAAAAAGACAAAUCUGCCACAAAGCUUGAGAGCAUCUUCGGAUGCAGAGGCGGCAGCCUUCGGUGGCGCGAUAGCGCCAACGUUCUCAACUAUGACACGCAAAACGCGUGCUCCGUUGAAUGGAGUUUAUCAUG

Variants of: B1
Experiment: polymerase ribozyme fitness, log enrichment relative to wild type (log ratio); higher = more active; in vitro selection for triplet polymerase activity
Summary of the method: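 For each subunit of a heterodimeric triplet polymerase ribozyme, a mutant library was built by PCR and transcribed, then taken through a single in vitro selection round in triplicate. Selection involved annealing to a biotinylated primer, the partner subunit and triplets, incubation frozen at −7 °C, gel excision of extended constructs, capture on streptavidin beads and RT-PCR. Genotypes were retained after Illumina sequencing of inputs and outputs only with ≥10 input reads and ≥1 read in each output. Fitness is defined as the logarithm of a genotype's enrichment relative to wild-type enrichment, using inverse-variance-weighted averages across replicates, with the logarithm taken to base 2.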

| Variant | polymerase ribozyme fitness (log ratio) |
| --- | --- |
| A60G C93A A97C A110U C123U U130G G133A | ≤ -4.2 |
| G59U C76U C105A A113U C116U | ≤ -4.2 |
| A60G C96G | -0.394 |
| G59U A97C C99G | -3.18 |
| A60U C93U | -3.16 |
| A60U A106G | -0.0172 |
| G59U C96U | -0.292 |
| G59U C96A | -0.703 |
| A60U C76U G86A G141A | -3.96 |
| A60G G83A G86A A97C C125G C131G G136A G152U | ≤ -4.2 |
| U61A C105U U134G U139G | -4.18 |
| A60C G80A | -2.27 |
| U61A C96A G126A C131U | -2.54 |
| G59U A98G | 0.162 |
| A60G U134A | -1.8 |
| A60G U134G | -2.14 |
| A60G C69A G88A C95G U101A A106C A107G A119C U148A | ≤ -4.2 |
| U61G U82C A89U A120U U135A | -2.52 |
| U61G C95U A97G C105A A106U | ≤ -4.2 |
| G62U G94U C96U | -3.88 |
| G62A C99U | -2.24 |

| Variant | polymerase ribozyme fitness (log ratio) |
| --- | --- |
| A60U G84U U102G | -4.18 |
| G62A G141U | 1.11 |
| G62U C132A | ≤ -4.2 |
| U61A U90G U139C | ≤ -4.2 |
| A60G A73G G92U | 0.661 |
| A60U C96U | -0.416 |
| U61A A91C G100C A142U | ≤ -4.2 |
| G62U C72G C93A | ≤ -4.2 |
| U61C C85A A121G U135A | ≤ -4.2 |
| U61G G68A U77C C87U C93G C123U G126C U135C | ≤ -4.2 |
| A60U U61A A142C | -3.49 |
| U61G A122C | -1.51 |
| A60C U61C C76U A121G | ≤ -4.2 |
| A60U U130G G143C | ≤ -4.2 |
| U61G C96U | -1.29 |
| A60G C95U | -0.927 |
| A60U C85A U101A A119G U127C | ≤ -4.2 |
| U61C C96A | -3.31 |
| G62C C93U U135A | -3.41 |
| A60U A91G G141A U145G | -3.98 |
| A60U A89C A142U | -2.09 |

| Variant | polymerase ribozyme fitness (log ratio) |
| --- | --- |
| A60G U102A U109G A115C | -3.77 |
| A60G U134G G143U | -3.39 |
| U61G C63A G71U G80A G94U C105G C116G U139A | ≤ -4.2 |
| U61G C99U | -2.77 |
| G62C C123A | -1.69 |
| U61A A122G G140C | ≤ -4.2 |
| G62A G65A G117U U144A | -3.79 |
| U61G G67U U90A A120G | ≤ -4.2 |
| A60U G65C | -3.98 |
| A60C G62C G83U G133A | ≤ -4.2 |
| A60U C87A C95A C108A A110G | -4.07 |
| U61A C63U G133U | ≤ -4.2 |
| A60U U78C A91U C116A G117U | ≤ -4.2 |
| G62A G70A G71A G80C C87U C108U | ≤ -4.2 |
| U61G C87U C125G | ≤ -4.2 |
| G59U C99U C132U | -1.59 |
| U61A G67A C76A G81A C85A | ≤ -4.2 |
| U61A G84A | -1.38 |
| G62C G68U A89G C108A A113U | ≤ -4.2 |
| A60U C79U A98G C103A | ≤ -4.2 |
| G62A U130G | -3.67 |

| Variant | polymerase ribozyme fitness (log ratio) |
| --- | --- |
| G62C A106U C125U | -3.86 |
| A60C G71A C85A G143C | ≤ -4.2 |
| G62A A98U | -1.42 |
| A60C C79U U102A C103A A142G | ≤ -4.2 |
| A60G C95U C96A | -1.03 |
| U61A G84A G92U G100U | ≤ -4.2 |
| U61A A142G | -1.25 |
| G62C | -1.07 |
| G62A | -0.367 |
| G62U | -0.546 |
| A60G A91C C95U A110U C114U C118G A150U | ≤ -4.2 |
| U61G G86A | -2.45 |
| U61G C96U U144G | -1.1 |
| G59U G88U A121U U127A U134G | ≤ -4.2 |
| A60G G94A | 0.0761 |
| U61A U77A C95U A97C U139A A150G | ≤ -4.2 |
| A60G A107U C131G | ≤ -4.2 |
| G59U G88C C116G | -3.85 |
| U61A A66C G74A U90G A91G G133U A138C | ≤ -4.2 |
| A60G G67U C93U C99U C129U | ≤ -4.2 |
